Reference: PMC9445081, “Structural basis for recognition of N-formyl peptides as pathogen-associated molecular patterns” (Nature Communications, 2022)
Numbering of substitutions follows the chain as printed. Where no end group is shown, it is not given here. The star is where a group is joined. For = O=C*

Columns and labels:
[1] = tested on: FPR1; conditions: non-formyl MLF versus fMLF; cited from earlier work
[2] = tested on: FPR1; conditions: cited from earlier work
[3] = molecular target: T1, FPR1 F102A (human, UniProt P21462 1-350, F102A); experiment: cell-based or functional assay
T1 sequence (looked up): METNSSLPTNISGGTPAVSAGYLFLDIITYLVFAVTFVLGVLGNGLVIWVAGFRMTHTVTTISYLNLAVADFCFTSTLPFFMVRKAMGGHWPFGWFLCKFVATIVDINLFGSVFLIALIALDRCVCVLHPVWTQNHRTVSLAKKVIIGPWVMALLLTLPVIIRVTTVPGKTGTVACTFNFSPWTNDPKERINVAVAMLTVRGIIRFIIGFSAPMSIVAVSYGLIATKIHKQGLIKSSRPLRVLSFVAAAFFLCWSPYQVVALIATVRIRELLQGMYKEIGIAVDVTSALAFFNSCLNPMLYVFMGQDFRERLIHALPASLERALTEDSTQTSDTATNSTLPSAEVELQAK

[4] = molecular target: T2, FPR1 L109A (human, UniProt P21462 1-350, L109A); experiment: cell-based or functional assay
T2 sequence (looked up): T1 sequence (looked up) with A102F, L109A

[5] = molecular target: T3, FPR1 F110A (human, UniProt P21462 1-350, F110A); experiment: cell-based or functional assay
T3 sequence (looked up): T1 sequence (looked up) with A102F, F110A

[6] = molecular target: T4, FPR1 T265A (human, UniProt P21462 1-350, T265A); experiment: cell-based or functional assay
T4 sequence (looked up): T1 sequence (looked up) with A102F, T265A

[7] = molecular target: T5, FPR1 V283A (human, UniProt P21462 1-350, V283A); experiment: cell-based or functional assay
T5 sequence (looked up): T1 sequence (looked up) with A102F, V283A

[8] = molecular target: T6, FPR1 F291A (human, UniProt P21462 1-350, F291A); experiment: cell-based or functional assay
T6 sequence (looked up): T1 sequence (looked up) with A102F, F291A

[9] = molecular target: T7, WT FPR1 expressed in HeLa cells (human, UniProt P21462 1-350); experiment: cell-based or functional assay
T7 sequence (looked up): T1 sequence (looked up) with A102F

[10] = molecular target: T8, FPR1 F81A (human, UniProt P21462 1-350, F81A); experiment: cell-based or functional assay
T8 sequence (looked up): T1 sequence (looked up) with F81A, A102F

[11] = molecular target: T9, Gαi (α subunit of the Gi1 heterotrimer) (human, UniProt P63096 1-354); experiment: cryo-EM structure; conditions: both partners purified
T9 construct: Gαi of the Gi1 heterotrimer, human cDNA; The same chain as the first chain of m4; source: Trichoplusia ni Hi5 insect cells (baculovirus), purified as part of the Gi1 heterotrimer (Ni-NTA)
T9 sequence (P63096 whole entry, one chain of several): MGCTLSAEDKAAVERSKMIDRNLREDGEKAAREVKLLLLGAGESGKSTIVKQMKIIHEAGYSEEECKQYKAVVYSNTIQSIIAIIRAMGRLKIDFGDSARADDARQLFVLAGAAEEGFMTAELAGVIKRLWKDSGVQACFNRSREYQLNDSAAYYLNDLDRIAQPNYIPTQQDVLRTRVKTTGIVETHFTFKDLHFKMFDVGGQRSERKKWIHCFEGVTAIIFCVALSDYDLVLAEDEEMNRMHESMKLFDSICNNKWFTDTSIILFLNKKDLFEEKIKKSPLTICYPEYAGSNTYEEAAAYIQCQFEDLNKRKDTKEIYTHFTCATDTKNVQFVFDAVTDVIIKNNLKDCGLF

## Met-Leu-Phe [MLF]
[1]
  orders of magnitude less potent in FPR1 binding: 3 orders of magnitude

## tBoc-MLF
[2]
  pharmacological property at FPR1: antagonist

B1: fMet-Leu-Phe (fMLF) (peptide)
peptide: For-Met-Leu-Phe
[3]
  pEC50 of inhibition of forskolin-elevated cAMP, transfected HeLa cells: 8.5
[4]
  pEC50 of inhibition of forskolin-elevated cAMP, transfected HeLa cells: 8.1
[5]
  pEC50 of inhibition of forskolin-elevated cAMP, transfected HeLa cells: 8.6
[6]
  pEC50 of inhibition of forskolin-elevated cAMP, transfected HeLa cells: 7.8
[7]
  pEC50 of inhibition of forskolin-elevated cAMP, transfected HeLa cells: 8.8
[8]
  pEC50 of inhibition of forskolin-elevated cAMP, transfected HeLa cells: 8.4
[9]
  pEC50 of inhibition of forskolin-elevated cAMP, transfected HeLa cells: 9.1
[10]
  pEC50 of inhibition of forskolin-elevated cAMP, transfected HeLa cells: 8.1

B2: formyl peptide receptor 1 (FPR1), N-terminal FLAG tag and C-terminal 6 x His tag (receptor, human)
chain: T1 sequence (looked up) with A102F
notes: formyl peptide receptor 1, Homo sapiens, cDNA Gene ID 2357; Solubilised in DDM/CHS and exchanged to LMNG (later LMNG/GDN/CHS); also called human FPR1; source: Sf9 insect cells (baculovirus), purified (anti-FLAG M1 resin, SEC) in detergent; not shown: FLAG, N-terminal, kept
[11]
  binding result: binds
